Experimental data from doi:10.1101/2025.02.21.639491 (bioRxiv, 2025).

Target: the molecule itself
Test: mass photometry

B1: wild-type mouse PADI6 (peptidyl arginine deiminase 6) (natural protein, UniProt Q8K3V4 1-682, looked up)
chain: MSFQNSLSLSLVNPTHALCMVGMEITLDISKCAPDKCKSFTIRGSPRILIHISSSVIAGKEDTVVWRSMNHPTVALVRMVAPSPTVDEDKVLVSYFCPDQEVPTATAVLFLTGIEISLEADIYRDGQLDMPSDKQAKKKWMWGMNGWGAILLVNCSPNAVGQPDEQSFQEGPREIQNLSQMNVTVEGPTSILQNYQLILHTSEEEAKKTRVYWSQRGSSAYELVVGPNKPVYLLPTFENRRKEAFYVEATEFPSPSFSGLISLSLSLVEKAHDECIPEIPLYKDTVMFRVAPYIFMPSTQMPLEVYLCRELQLQGFVDSVTKLSEKSKVQVVKVYEDPNRQSKWLQDEMAFCYTQAPHKTVSLILDTPRVSKLEDFPMKYTLTPGSGYLIRQTEDHRVASLDSIGNLMVSPPVKAQGKDYPLGRVLIGGSFYPSSEGRDMNKGLREFVYAQQVQAPVELFSDWLMTGHMDQFMCFVPTNDKNNDQKDFRLLLASPSACFELFEQKQKEGYGNVTLFEDIGAEQLLSNGRESKTISQILADKSFREQNTYVEKCISLNRTLLKTELGLEDKDIILIPQLFCLEQLTNVPSNQQSTKLFARPYFPDMLQIIVLGKNLGIPKPFGPKINGTCCLEEKVCGLLEPLGLKCTFIDDFDCYLANIGDVCASAIINRVPFAFKWWKMTP
  stoichiometry N: 2

B2: mouse PADI6 C663A (natural protein, UniProt Q8K3V4 1-682, looked up)
chain: MSFQNSLSLSLVNPTHALCMVGMEITLDISKCAPDKCKSFTIRGSPRILIHISSSVIAGKEDTVVWRSMNHPTVALVRMVAPSPTVDEDKVLVSYFCPDQEVPTATAVLFLTGIEISLEADIYRDGQLDMPSDKQAKKKWMWGMNGWGAILLVNCSPNAVGQPDEQSFQEGPREIQNLSQMNVTVEGPTSILQNYQLILHTSEEEAKKTRVYWSQRGSSAYELVVGPNKPVYLLPTFENRRKEAFYVEATEFPSPSFSGLISLSLSLVEKAHDECIPEIPLYKDTVMFRVAPYIFMPSTQMPLEVYLCRELQLQGFVDSVTKLSEKSKVQVVKVYEDPNRQSKWLQDEMAFCYTQAPHKTVSLILDTPRVSKLEDFPMKYTLTPGSGYLIRQTEDHRVASLDSIGNLMVSPPVKAQGKDYPLGRVLIGGSFYPSSEGRDMNKGLREFVYAQQVQAPVELFSDWLMTGHMDQFMCFVPTNDKNNDQKDFRLLLASPSACFELFEQKQKEGYGNVTLFEDIGAEQLLSNGRESKTISQILADKSFREQNTYVEKCISLNRTLLKTELGLEDKDIILIPQLFCLEQLTNVPSNQQSTKLFARPYFPDMLQIIVLGKNLGIPKPFGPKINGTCCLEEKVCGLLEPLGLKCTFIDDFDCYLANIGDVAASAIINRVPFAFKWWKMTP
  stoichiometry N: 2
